Laboratory results as given in the supplement of paper PMC10126150.
± gives the standard deviation of the averaged measurements.

Tested on: ATP
Experiment: switch fluorescence ratio, 500 uM ATP over buffer (Cy3 cluster intensity, sum of 5 cycles each) (fold (ratio)); higher = stronger signal-on switching upon ATP binding; sequences stand for … in TCGTCGGCAGCGTCAGATGTGTATAAGAGACAGTTTTTTTTTTTTTTTTTTTTTTTTT…TC
Settings: aptamer strand: ATP DNA aptamer (quencher-CACCTGGGGGAGTATTGCGGAGGAAGG + anchor), 100 nM annealed; ATP concentration: 500 uM
Outline: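 The fluorescence ratio divides summed target-cycle Cy3 intensity by summed buffer-cycle Cy3 intensity for each cluster and is averaged per switch-domain sequence. Cy3-labelled switching-strand clusters on a modified Illumina MiSeq flow-cell were annealed to 100 nM quencher-labelled ATP aptamer, then imaged in selection buffer and again after 15 min with 500 uM ATP at 22 °C. Five such cycles were run, with NaOH stripping and re-annealing between them, and clusters outside 100-1000 RFU were excluded.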
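Note: ATP exposure 15 min at 22 °C before imaging.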

**Q.** For GGTTTCCCTG, which switch fluorescence ratio is on record?
**A.** The switch fluorescence ratio was 0.9984 ± 0.0033.

**Q.** With GCGTTCGGCC as the sequence, how does the switch fluorescence ratio read?
**A.** Its switch fluorescence ratio is 1.01 ± 0.016.

**Q.** Which switch fluorescence ratio does the source give for TTATGATTCA here?
**A.** Its switch fluorescence ratio is 0.973 ± 0.022.

**Q.** Which switch fluorescence ratio does the source give for ATTTTTCCCG here?
**A.** The switch fluorescence ratio was 1.07 ± 0.059.

**Q.** How did the switch fluorescence ratio turn out when AAAAACGGGG was run?
**A.** Its switch fluorescence ratio is 1.009 ± 0.0075.

**Q.** How did the switch fluorescence ratio turn out when ATCATGGAGG was run?
**A.** The switch fluorescence ratio was 0.993 ± 0.017.

**Q.** AGAGATAGGG was tested. Which switch fluorescence ratio did it give?
**A.** Its switch fluorescence ratio is 1.01 ± 0.019.

**Q.** Which switch fluorescence ratio does the source give for AAGTAAGGGG here?
**A.** The switch fluorescence ratio was 0.955 ± 0.054.

**Q.** For CTTTTAGTTT, which switch fluorescence ratio is on record?
**A.** Its switch fluorescence ratio is 0.9963 ± 0.0034.

**Q.** With ATCGCCTTGC as the sequence, how does the switch fluorescence ratio read?
**A.** Its switch fluorescence ratio is 1.163 ± 0.001.

**Q.** With TCAGTAGGCA as the sequence, how does the switch fluorescence ratio read?
**A.** The switch fluorescence ratio was 1.01 ± 0.011.

**Q.** Which switch fluorescence ratio does the source give for ATAAACGGCT here?
**A.** Its switch fluorescence ratio is 1.01 ± 0.021.

**Q.** ATATGGGTGG was tested. Which switch fluorescence ratio did it give?
**A.** The switch fluorescence ratio was 1.01 ± 0.016.

**Q.** How did the switch fluorescence ratio turn out when GGATTGTAAG was run?
**A.** Its switch fluorescence ratio is 0.991 ± 0.032.

**Q.** Which switch fluorescence ratio does the source give for TCTCGGGGTG here?
**A.** The switch fluorescence ratio was 1.04 ± 0.089.

**Q.** With ATATTGTTTT as the sequence, how does the switch fluorescence ratio read?
**A.** The switch fluorescence ratio was 1.02 ± 0.019.

**Q.** Which switch fluorescence ratio does the source give for AGAGGGGAAG here?
**A.** The switch fluorescence ratio was 1.005 ± 0.0087.

**Q.** GGGTTCCGTG was tested. Which switch fluorescence ratio did it give?
**A.** The switch fluorescence ratio was 1.01 ± 0.024.

**Q.** TTAGTTTTGT was tested. Which switch fluorescence ratio did it give?
**A.** The switch fluorescence ratio was 0.999 ± 0.027.

**Q.** How did the switch fluorescence ratio turn out when TTTCTCAAAA was run?
**A.** Its switch fluorescence ratio is 1.03 ± 0.024.

**Q.** How did the switch fluorescence ratio turn out when GGATTTGGTT was run?
**A.** The switch fluorescence ratio was 1.04 ± 0.036.

**Q.** ATTTTCACAG was tested. Which switch fluorescence ratio did it give?
**A.** The switch fluorescence ratio was 1.03 ± 0.077.

**Q.** For ATAACGCAGT, which switch fluorescence ratio is on record?
**A.** The switch fluorescence ratio was 1.0027 ± 0.00069.

**Q.** With TTGTGGTGGG as the sequence, how does the switch fluorescence ratio read?
**A.** Its switch fluorescence ratio is 1.03 ± 0.069.

**Q.** With ATGGGGCTCT as the sequence, how does the switch fluorescence ratio read?
**A.** Its switch fluorescence ratio is 0.9967 ± 0.0067.

**Q.** For TACTGGTTGG, which switch fluorescence ratio is on record?
**A.** The switch fluorescence ratio was 1 ± 0.021.

**Q.** Which switch fluorescence ratio does the source give for TTTGTGCACC here?
**A.** Its switch fluorescence ratio is 0.9941 ± 0.005.

**Q.** How did the switch fluorescence ratio turn out when GGTGCTAAGG was run?
**A.** Its switch fluorescence ratio is 1.02 ± 0.021.

**Q.** For CTGAGCGATT, which switch fluorescence ratio is on record?
**A.** Its switch fluorescence ratio is 1.41 ± 0.032.

**Q.** For TAATGGATGG, which switch fluorescence ratio is on record?
**A.** Its switch fluorescence ratio is 0.966 ± 0.019.

**Q.** Which switch fluorescence ratio does the source give for GTCGTTCTGA here?
**A.** Its switch fluorescence ratio is 0.99257 ± 0.00085.

**Q.** For ATAAGACCGT, which switch fluorescence ratio is on record?
**A.** Its switch fluorescence ratio is 1.015 ± 0.0046.

**Q.** Which switch fluorescence ratio does the source give for GAGGCAGACT here?
**A.** The switch fluorescence ratio was 1.23 ± 0.019.

**Q.** TACTGTGGGG was tested. Which switch fluorescence ratio did it give?
**A.** Its switch fluorescence ratio is 1.009 ± 0.0094.

**Q.** How did the switch fluorescence ratio turn out when ATGTTTGGTA was run?
**A.** The switch fluorescence ratio was 1.003 ± 0.0015.

**Q.** TTATTACTTA was tested. Which switch fluorescence ratio did it give?
**A.** Its switch fluorescence ratio is 0.984 ± 0.017.

**Q.** With TAATTAGCGG as the sequence, how does the switch fluorescence ratio read?
**A.** The switch fluorescence ratio was 1.01 ± 0.018.

**Q.** For TGGTTGAATT, which switch fluorescence ratio is on record?
**A.** The switch fluorescence ratio was 0.992 ± 0.05.

**Q.** For ACGGTGGTGT, which switch fluorescence ratio is on record?
**A.** Its switch fluorescence ratio is 1.03 ± 0.016.

**Q.** For TCTTAGGTCA, which switch fluorescence ratio is on record?
**A.** The switch fluorescence ratio was 0.973 ± 0.022.

**Q.** With TATCCGTGGG as the sequence, how does the switch fluorescence ratio read?
**A.** Its switch fluorescence ratio is 0.973 ± 0.051.

**Q.** With ATTTCACAAT as the sequence, how does the switch fluorescence ratio read?
**A.** The switch fluorescence ratio was 0.9798 ± 0.0028.

**Q.** For TTAAGTGGGT, which switch fluorescence ratio is on record?
**A.** The switch fluorescence ratio was 0.979 ± 0.061.

**Q.** Which switch fluorescence ratio does the source give for GCATCATTCA here?
**A.** Its switch fluorescence ratio is 1.03 ± 0.017.

**Q.** How did the switch fluorescence ratio turn out when AGGGTTGACT was run?
**A.** Its switch fluorescence ratio is 0.964 ± 0.012.

**Q.** How did the switch fluorescence ratio turn out when AATTATGTAG was run?
**A.** The switch fluorescence ratio was 1 ± 0.014.

**Q.** With TGAAGCTTGG as the sequence, how does the switch fluorescence ratio read?
**A.** The switch fluorescence ratio was 1.026 ± 0.0073.

**Q.** How did the switch fluorescence ratio turn out when TTTGGAGGTA was run?
**A.** The switch fluorescence ratio was 1.01 ± 0.059.

**Q.** With TTAGTAGGAG as the sequence, how does the switch fluorescence ratio read?
**A.** The switch fluorescence ratio was 0.992 ± 0.034.

**Q.** TGTGTTACGG was tested. Which switch fluorescence ratio did it give?
**A.** Its switch fluorescence ratio is 0.984 ± 0.023.

**Q.** TAGCGTTTCC was tested. Which switch fluorescence ratio did it give?
**A.** The switch fluorescence ratio was 1.097 ± 0.0047.

**Q.** For CGTAAGCGTA, which switch fluorescence ratio is on record?
**A.** The switch fluorescence ratio was 1.04 ± 0.032.

**Q.** AAGGCGAGCT was tested. Which switch fluorescence ratio did it give?
**A.** Its switch fluorescence ratio is 0.992 ± 0.01.

**Q.** For AGGGGGACGT, which switch fluorescence ratio is on record?
**A.** Its switch fluorescence ratio is 0.998 ± 0.024.

**Q.** TCAAATTCGG was tested. Which switch fluorescence ratio did it give?
**A.** Its switch fluorescence ratio is 1.01 ± 0.011.

**Q.** With GCTTCGGAGT as the sequence, how does the switch fluorescence ratio read?
**A.** The switch fluorescence ratio was 1.059 ± 0.01.

**Q.** With CGTATGGTTC as the sequence, how does the switch fluorescence ratio read?
**A.** The switch fluorescence ratio was 0.996 ± 0.031.

**Q.** ATTAATATCA was tested. Which switch fluorescence ratio did it give?
**A.** The switch fluorescence ratio was 0.9629 ± 0.0017.

**Q.** With CGTTTTTCGG as the sequence, how does the switch fluorescence ratio read?
**A.** Its switch fluorescence ratio is 0.971 ± 0.0087.

**Q.** For GGGCAAAGTA, which switch fluorescence ratio is on record?
**A.** Its switch fluorescence ratio is 0.924 ± 0.039.

**Q.** TGGGTAATGC was tested. Which switch fluorescence ratio did it give?
**A.** Its switch fluorescence ratio is 1.27 ± 0.13.

**Q.** TGGCTGTTGA was tested. Which switch fluorescence ratio did it give?
**A.** The switch fluorescence ratio was 1.01 ± 0.018.

**Q.** Which switch fluorescence ratio does the source give for GGGTTGCCGA here?
**A.** Its switch fluorescence ratio is 1.09 ± 0.19.

**Q.** For ACTGGTTTTT, which switch fluorescence ratio is on record?
**A.** Its switch fluorescence ratio is 0.987 ± 0.036.

**Q.** How did the switch fluorescence ratio turn out when GCGGGTAAGC was run?
**A.** The switch fluorescence ratio was 1.05 ± 0.012.

**Q.** Which switch fluorescence ratio does the source give for GCCATGGGCA here?
**A.** Its switch fluorescence ratio is 1.002 ± 0.0053.

**Q.** Which switch fluorescence ratio does the source give for GTATGGGATA here?
**A.** Its switch fluorescence ratio is 1.01 ± 0.035.

**Q.** ATTACGTTTT was tested. Which switch fluorescence ratio did it give?
**A.** The switch fluorescence ratio was 0.989 ± 0.039.

**Q.** How did the switch fluorescence ratio turn out when ATCGGGAGAG was run?
**A.** Its switch fluorescence ratio is 1.05 ± 0.026.

**Q.** With GCAGGACGGG as the sequence, how does the switch fluorescence ratio read?
**A.** The switch fluorescence ratio was 1.4 ± 0.64.

**Q.** With AAGTTAATTC as the sequence, how does the switch fluorescence ratio read?
**A.** Its switch fluorescence ratio is 1.013 ± 0.0081.

**Q.** How did the switch fluorescence ratio turn out when TTAAAGGCTT was run?
**A.** The switch fluorescence ratio was 0.997 ± 0.019.

**Q.** For TTCCGCCGCT, which switch fluorescence ratio is on record?
**A.** Its switch fluorescence ratio is 2.34 ± 1.8.

**Q.** For TTTACGGGAA, which switch fluorescence ratio is on record?
**A.** Its switch fluorescence ratio is 1.05 ± 0.007.

**Q.** With GCCGGGGTTG as the sequence, how does the switch fluorescence ratio read?
**A.** Its switch fluorescence ratio is 1 ± 0.021.

**Q.** Which switch fluorescence ratio does the source give for ATGAAAGCAC here?
**A.** The switch fluorescence ratio was 1.09 ± 0.061.

**Q.** AAGCCGAGGG was tested. Which switch fluorescence ratio did it give?
**A.** The switch fluorescence ratio was 1.017 ± 0.0022.
